The record followed here is paper doi:10.1101/2023.01.16.524289, “HuR modulation with tanshinone mimics impairs LPS response in murine macrophages”.

The target of this data set is rM1M2 HuR (RRM1-RRM2) (UniProt Q15717 18-186). Nature of the data set: HTRF; 20 nM protein, 50 nM probe; TM7nox inhibits with IC50 0.7956 uM (small-molecule IC50, not an affinity); REMSA: 30 min incubation, 4% native gel, buffer not given; HTRF: Cisbio protocol; pull-down: lysis in PEB (20 mM Tris-HCl pH 7.5, 100 mM KCl, 5 mM MgCl2, 0.5% NP-40), binding in TENT (20 mM Tris-HCl pH 8.0, 2 mM EDTA, 500 mM NaCl, 1% Triton X-100), 4 C. The note with it: protein: recombinant; tags: His-tag; label: 5'-biotin; single strand. In general terms: TR-FRET usually uses a lanthanide donor and a delayed reading to cut background.
Sequence of rM1M2 HuR (RRM1-RRM2) (Q15717 18-186): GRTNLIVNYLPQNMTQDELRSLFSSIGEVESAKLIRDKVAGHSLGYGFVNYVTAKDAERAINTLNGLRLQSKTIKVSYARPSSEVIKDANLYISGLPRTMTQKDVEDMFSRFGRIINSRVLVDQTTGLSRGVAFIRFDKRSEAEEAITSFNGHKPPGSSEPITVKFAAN

For AUUAUUUAUUAUUUAUUUAUUAUUUA (ssRNA) [Bi-TNF ARE probe (26 nt)], the binding result was “binds”.
